Biological target: recombinant myostatin
Experiment: cell-based or functional assay

“myostatin antagonist 350 (amino acids 267-350 of bovine myostatin) (from UniProt O18836 267-350) (peptide)” gave a macrophage migration towards ZAMS medium (chemotaxis assay, FIG. 9) of 20 fold.
